The values that follow are results of earlier work, collected in publication PMC6272133.

The series addresses LLT1 (Homo sapiens) (UniProt Q9UHP7). Briefly: SPR. For orientation: Surface plasmon resonance follows binding to a sensor surface in real time, without labels.
Chain of UniProt Q9UHP7 (Q9UHP7 60-191): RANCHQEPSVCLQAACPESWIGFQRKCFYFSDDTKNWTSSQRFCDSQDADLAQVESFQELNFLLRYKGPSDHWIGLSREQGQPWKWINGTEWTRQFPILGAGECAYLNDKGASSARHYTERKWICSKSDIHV

For orientation: Kd means the free concentration of one partner at which half of the binding sites on the other are occupied at equilibrium, for simple one-to-one binding. On to NKRP1A ECD (from UniProt Q12918), for which the Kd is 48 µM.
